Columns and labels:
Test in all cases: ELONA (direct, immobilized protein)
[1] = target: SARS-CoV-2 Delta VOC spike (S) protein (SARS-CoV-2 (Delta variant)) (UniProt P0DTC2)
[2] = target: SARS-CoV-2 Omicron VOC spike (S) protein (SARS-CoV-2 (Omicron variant)) (UniProt P0DTC2)
[3] = target: SARS-CoV-2 Alpha VOC spike (S) protein (SARS-CoV-2 (Alpha variant)) (UniProt P0DTC2)

Sequence: ATCGAGCATGGCGAGTGTCCTATCCCCCATCAACTCAACCCAACCAGTACGACTCCTCCTCGTCTGAATGACGGCTAACT [Delta Apt (Bio)]
- Kd [1]: 112 nM

Sequence: CTGGCCTCACTGGATACTCTAAGACTATTGGTCAAGTTTGCCTTGTCAAGGCTATTGGTCAAGGCAAGGCTGGCCAACCCATGGGTGGAGTTTAGCCAG [Omicron Apt (Bio)]
- Kd [2]: 32 nM

Sequence: AGTTAGCCGTCATTCAGACGATTTGTCCGTGTTACGATTGGGGAACGTGGATGACATTCTGGACACTCGCCATGCTCGAT [Alpha Apt (Bio)]
- Kd [3]: 194 nM

Reference: PMC11868117
